Values of other authors, collected in paper PMC7855784.

Target: HER2 ECD (Homo sapiens) (UniProt P04626)

Kd: 7.3 nM
Substance: PEPD (from UniProt P12955)
